Data: the supplement of paper PMC9170038

System: MS2 coat protein
Experiment: apparent KD of MS2 coat protein; designed switch direction (-1 OFF switch, 1 ON switch): -1; higher = weaker reporter binding
How it was run: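 RNA switches sharing common flanks were transcribed by stalled E. coli RNA polymerase on Illumina chips. A doubling series of SNAP-549-labelled MS2 coat protein, from 0.7 or 1.5 nM to 3 µM, was applied in Tris-HCl pH 7.5 buffer with KCl, MgCl2, BSA, DTT, tRNA and Tween-20. Each step lasted 0.8–1.5 h at the bottom of the series and 10–20 min at the top. Normalised cluster fluorescence was curve-fitted, giving apparent KD as the per-design median over clusters.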

[1] = input ligand: microRNA oligo, concentration not stated
[2] = Eterna round: R95, input ligand: FMN 200 uM
[3] = Eterna round: R95, input ligand: microRNA oligo, concentration not stated
[4] = Eterna round: R95, input ligand: none

| Sequence | apparent KD of MS2 coat protein (input ligand: FMN 200 uM) [nM] | apparent KD of MS2 coat protein [1] [nM] | apparent KD of MS2 coat protein (input ligand: none) [nM] | apparent KD of MS2 coat protein [2] [nM] | apparent KD of MS2 coat protein [3] [nM] | apparent KD of MS2 coat protein [4] [nM] |
| --- | --- | --- | --- | --- | --- | --- |
| GUGCAAUGAGGAUAUACGUUGGUGAACAUCUGUGUGCUCCUACAUGAGGAUCACCCAUGUAGAAGGCAUGUCAC [LRO-Excl2-18] (Eterna round: R96, puzzle: Exclusion 2) | 18.3 | 10.8 | 14.1 |  |  |  |
| UCUCAGUUAGGAUAUUUAAUGUGCCGUGAGGACACGCCUUUGAAGAAGGGACAUGAGGAUCACCCAUGUGAGUA [Eternabot (L2) Solution 44] (Eterna round: R97, puzzle: Exclusion 4) | 47.3 |  | 26.3 |  |  |  |
| UAUGGUUAAGUCAGGAUAUACUAAUAGAAGUCUGUGUAGAAGGGACAUGAGGAUCACCCAUGUAUGGUAGUGUU [Ex4 #60] (Eterna round: R97, puzzle: Brourd's mod of Exclusion 4) | 119 |  | 122 |  |  |  |
| CCCAGUUAGUCAGGAUAUCUUACAUGAGGAUCACCCAUGUAAUAAAUGAGGAUUUCGGGUGUCUAAGAGAAGGGACGGAUAGGC [Ostracism 27 - Jieux - Exclusion NG 2] (Eterna round: R96, puzzle: Exclusion NG 2) | 22.3 | 9.5 | 19.4 |  |  |  |
| AAUAAUAAUGUGAGGAUAUCUAGAGCUUCGGCUCUAGAGAAGGCACAUGAGGAUCACCCAUGUCUCAAUAAUAA [BmEx4/2-E4] (Eterna round: R97, puzzle: Brourd's mod of Exclusion 4) | 263 |  | 53.4 |  |  |  |
| GUGAAGUAAGGAUAUACAUGAGGAUCACCCAUGUGGAGGAAGGUGAUGGGAGUAGGUAGUAGAAGGUACGAGGA [JR_Exclu3_Sub064] (puzzle: Exclusion 3) |  |  |  | 115 | 159 | 201 |
| CAGUACUGAGGAUAUACAUGAGGAUCACCCAUGUGUUCCAGGUAGGAAACUAGCAAAAGUAGAAGGCAGUACUG [salish99_ex3_r3_078] (puzzle: Exclusion 3) |  |  |  | 99.7 | 20.2 | 20.4 |
| AGCUAGUGAGGAUAUACGAACAUGUCAAAAGACUGUAAGGGACAUGAGGAUCACCCAUGUAGAAGGCACUAGCA [Diamond 55] (Eterna round: R96, puzzle: Exclusion 2) |  | 32.4 |  |  |  |  |
| GUAGAGUCAGGAUAUACAAAACCAUCGAAAGAUGGAUCCAUACAUGAGGAUCACCCAUGUAGAAGGGACUCUAC [Eli x2 4.17] (Eterna round: R97, puzzle: Exclusion 2) | 21 |  | 17.1 |  |  |  |
| GAGUUAGCGUGUGGAAUAUACAUGAGGAUCACCCAUGUUAGCUUAUAUAUUGCUCGUCUUAUAACAACACUUAACUG [Mod JX-Electric-eye4] (Eterna round: R97, puzzle: Sensor, turn-off variant 1) | 42.7 |  | 45.8 |  |  |  |
| UAACAAAUGGUCAGGAUAUCAUUCCCGGCCCAGAGUGAGAAGGGACAUGAGGAUCACCCAUGUGUGAUUCUCAU [jl-ex4-4.55 ViennaUCT mod] (Eterna round: R97, puzzle: Brourd's mod of Exclusion 4) | 128 |  | 97.1 |  |  |  |
| GAGAAGGUAGGAUAUACGAAUAAAUAGGGUAGGAAGAAGACACAUGAGGAUCACCCAUGUAGAAGGACCAAGAU [Mat - Exclusion 2 - Mod of my Tesla design - D35] (puzzle: Exclusion 2) |  |  |  |  | 18.1 |  |
| UUGUUCUGAGGAUAUACAUGAGGAUCACCCAUGUGUUUCAGCUAGGAGACUAGCGAAAGUAGAAGGCUGUACUC [salish99_ex3_r4_017] (Eterna round: R97, puzzle: Exclusion 3) | 26.9 |  | 24.9 |  |  |  |
| ACGCCGCAAGGAUAUCGUAAAGCAGACAUGAGGAUCACCCAUGUGAUAUCAUAAAGGCCACGAGAAGGUGCACAAG [Quoredin] (puzzle: Exclusion 5) |  |  |  | 35.8 | 21.2 | 24.5 |
| ACUAGUCUAAAGGAUAUGGACCUGAACAAAUGGCCAGAAGGUUAAACAUGAGGAUCACCCAUGUAGGUGCGCCA [Eternabot (Original) Solution 18] (Eterna round: R97, puzzle: Exclusion 6) | 31.2 |  | 27.2 |  |  |  |
| ACAUGUUAUCCAUGAUAUCACAUGAGGAUCACCCAUGUUAUGGCGAUUUUGAGGUGUAAGUUUUUUGCUCGUCUUAU [JR_STOV1_Sub058] (Eterna round: R97, puzzle: Sensor, turn-off variant 1) | 51.5 |  | 61.1 |  |  |  |
| GUUAGUUAAGGAUAUACAGGGAGCCGCGGCGUCUCGCCGCAACAUGAGGAUCACCCAUGUAGAAGGUGGCCAUU [JL ViennaUCT Enbibi mod 2] (puzzle: Exclusion 2) |  |  |  |  | 101 |  |

| Sequence | apparent KD of MS2 coat protein (input ligand: FMN 200 uM) [nM] | apparent KD of MS2 coat protein [1] [nM] | apparent KD of MS2 coat protein (input ligand: none) [nM] | apparent KD of MS2 coat protein [2] [nM] | apparent KD of MS2 coat protein [3] [nM] | apparent KD of MS2 coat protein [4] [nM] |
| --- | --- | --- | --- | --- | --- | --- |
| AAUGCCGGUGUCAGGAUAUCCGGAGGGAAACCUCCGGAGAAGGGACAUGAGGAUCACCCAUGUAUGUAACCUGC [AK-MS2ROC-r4-Bmoexclusion4-6] (Eterna round: R97, puzzle: Brourd's mod of Exclusion 4) | 24.9 |  | 22.2 |  |  |  |
| CAGCUGAAAGUGAGGAUAUCGACUGCCUCGGCAGUCGAGAAGGCACAUGAGGAUCACCCAUGUCUCAACAGCUG [BmEx4/1-A5] (Eterna round: R97, puzzle: Brourd's mod of Exclusion 4) | 81.4 |  | 23 |  |  |  |
| GAAUAGGCAGGAUAUACAUGAGGAUCACCCAUGUGCAACCGAAAGGAACGUCCGAAAGGUAGAAGGGCCUAAAC [ChP 13.04.2015 #9] (puzzle: Exclusion 3) |  |  |  | 73.7 | 17.9 | 19.6 |
| GUCCUGGUAGGAUAUGAGGUUCACGACAUGAGGAUCACCCAUGUGGCCGUGUCUCAUACUUCAGAAGGACCGACAG [Eternabot (L2) Solution 5] (Eterna round: R97, puzzle: Exclusion 5) | 16.1 |  | 15.7 |  |  |  |
| GGCUUGCUAGUAGGAUAUCGCUUGUACAUGAGGAUCACCCAUGUGUGAUAUGCCUACAUAGUGCGUGAGAAGGACUGCAAGCCG [Diatdiinin] (Eterna round: R96, puzzle: Exclusion NG 2) | 23.2 | 8.15 | 14.1 |  |  |  |
| UUGUUACAUGAGGAUCACCCAUGUGAGGAUAUGGUUCAGUACUGUAAUGUAAAGUACUCCAGAAGGCACAUGUU [1st #28] (Eterna round: R97, puzzle: Exclusion 1) | 693 |  | 264 |  |  |  |
| AGAAGUAGAAACCGAUCCUACAUGAGGAUCACCCAUGUAGCAAGACGUGCACGCGAAGCUCGUCAGACUACCAGAAG [salish99_TOv1_r3_001] (puzzle: Sensor v3, turn-off variant 1) |  |  |  | 379 | 821 | 685 |
| UUAGAUUAUUGAGGAUAUGGAUCUUAUUAUUAACCAGAAGGCAAACUCAACAUGAGGAUCACCCAUGUAUAAAGGGUAUUAGUU [JR_ExcNG1_Sub099] (Eterna round: R96, puzzle: Exclusion NG 1) |  | 62.8 |  |  |  |  |
| GAUUAUGCGAGCUUUAGGGACAUGAGGAUCACCCAUGUUCGUCUUAUUGGUCUGAGUACACUAACAUACCUAAAUCU [JMF 15] (puzzle: Sensor v3, turn-off variant 1) |  |  |  | 18.3 | 26.4 | 20.3 |
| CCGAGGUAGCGGUCCUAUGACAUGAGGAUCACCCAUGUACCUCGCUACGAGCUUUUUGCUCGUCUUAAAAUUCUCGG [Mat - Sensor v3 - turn-off var 1 - JL Mod - D29] (puzzle: Sensor v3, turn-off variant 1) |  |  |  | 47 | 156 | 54 |
| UGGGUACUCCAUAGAAGAGACAUGAGGAUCACCCAUGUAGGGCAAGCUUUUUGCUCGUCUUAGGAUGAGGGAUAGGA [JR_SV3TOV1_Sub014] (puzzle: Sensor v3, turn-off variant 1) |  |  |  | 171 | 79.1 | 188 |
| GGUGAGCUAGGAUAUGCUUUGGGCUCGCUUUCCUUCGAUAUACUUGAGGAUCACCCAAGUAGAAGGAGCUUGCC [salish99_ex2_r4_034] (Eterna round: R97, puzzle: Exclusion 2) | 11.1 |  | 11.2 |  |  |  |
| GGAUUUCGAGGAUAUACACGCAAAUAGGUGUAUCCUUUAGCACAUGAGGAUCACCCAUGUAGAAGGCGGGUACU [Eternabot (L1) Solution 19] (Eterna round: R97, puzzle: Exclusion 2) | 136 |  | 150 |  |  |  |
| AGUGUGUUAGGAUAUCGGAUAUGCUGGAGGAGGUGGAGUUACGAGAAGGAACAUGAGGAUCACCCAUGUAGGAC [JR_Exclu4_Sub049] (puzzle: Exclusion 4) |  |  |  |  | 25.7 |  |
| AGAUCCUGAGUCAGGAUAUAGAGGCGGUAGCCUGGCUAGAAGGGACAUGAGGAUCACCCAUGUGGGUUCUUGCC [Gecela] (puzzle: Brourd's mod of Exclusion 4) |  |  |  |  | 12.7 |  |
| AAGAAACAUGAGGAUCACCCAUGUGAGGAUAUGAUGAGUAUUAUGUAUGUAGUAUGAAUCAGAAGGCACAAAGG [Mat - Mod Mix D40] (puzzle: Exclusion 1) |  |  |  | 224 | 95 | 158 |
| AAUUAUUUUUGAGGAUAUGGUGGUGAAACACCACCAGAAGGCGAGAUAAACAUGAGGAUCACCCAUGUGAGCCUGAUGCUUAUG [Ex NG1 #49] (Eterna round: R96, puzzle: Exclusion NG 1) | 29.2 | 12.6 | 17.2 |  |  |  |
